Consider 140 substances from the supplement of paper PMC12042874.

± gives the uncertainty stated by the source.

A short description of the data set: amyloid nucleation score (Sup35N fusion, yeast selection) (log enrichment); library NNK1; higher = more nucleation; inactive = no reads after selection. An outline of the steps: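 The nucleation score is the DiMSum log enrichment of output over input reads, centred on the mode score of non-aggregating sequences. Only sequences with 100 or more input reads were scored, using Illumina sequencing of input and output plasmid inserts. Psi-negative yeast expressing Sup35N fused to peptides of 20 random codons were induced 24 hours with 100 μM copper sulfate and grown 7 days at 30°C on medium lacking adenine and uracil.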

For SIFADGLVVGLGPSLYSVFF, the amyloid nucleation score stood at 0.175 ± 0.54.
Turning to VMDYYTMFFEMPRGRALIAN, the amyloid nucleation score entry was “inactive”.
For the substance RGVHVHRFVLLAMMKFQFGS, the amyloid nucleation score result is “inactive”.
In the case of VRSFVHTWLDTTWA, the amyloid nucleation score was -0.025 ± 0.36.
In the case of RGHAFLFVLYTFQLKAYAS, the amyloid nucleation score is -0.033 ± 0.3.
Regarding VYNWRLMEYHRGWDHFCYLS, the amyloid nucleation score was -0.559 ± 0.33.
For ITFLLRSFRVHS, the amyloid nucleation score result is “inactive”.
Take MECSASYLYVWKIANTLGRM: the amyloid nucleation score was determined as 0.637 ± 0.31.
Substance NCFSMRQRECCRYRMCVNGI displayed an amyloid nucleation score of 1.01 ± 0.55.
Regarding FWIWVCSDLLLD, the amyloid nucleation score amounted to 0.423 ± 0.43.
YFSKTISFLFSFNSCYEFIK: the amyloid nucleation score was determined as 1.19 ± 0.44.
The substance TCIARHLQILSVNRCCVRFA had an amyloid nucleation score of 0.062 ± 0.44.
SDELVQSTASGLFYASMGFK: the amyloid nucleation score is 1.75 ± 0.76.
SYILEKGLQTAYCVC registered an amyloid nucleation score of 1.42 ± 0.46.
Under IYVFSALRCTGTEVWYRLVT stands -1.2 ± 1.4; under GAFEDEVVLLTHTL, -0.447 ± 1.1.
The value for CFPSSVFVGCIFF was 7.532 ± 0.044; that for CNMSQC was “inactive”.
Consider VYYLIVHLHSGMLHQIVELS, for which the amyloid nucleation score is 0.707 ± 0.51.
Turning to EGQTGLLVWYGSHSVRLGNF, the amyloid nucleation score was -0.957 ± 2.4.
TSQTMTCWGSAL gave an amyloid nucleation score of 0.93 ± 0.4.
ILWLFSGAWLYYSVLYCL: the amyloid nucleation score was -0.076 ± 0.51.
YKSCCVGITPM: the amyloid nucleation score was -0.551 ± 0.49.
Regarding SCTYSIFCDNISRTLGH, the amyloid nucleation score was -0.287 ± 0.26.
The substance LWWLHGDLLLSWGFRMLWPL came in with an amyloid nucleation score of 0.117 ± 0.78.
YYNVCHNRINLVTSWFFYRR had an amyloid nucleation score of 0.946 ± 0.78.
With SMVRYTMDSKVKKRSSVVVG, the amyloid nucleation score was 3.56 ± 0.18.
Turning to DKELSFAKGACSKFSDSFRA, the amyloid nucleation score was -1.45 ± 1.1.
Substance CGYMLVYDAHMHRSLLCAC showed an amyloid nucleation score of -0.285 ± 0.26.
RYNAILAWCSLRKTGVYFLV registered an amyloid nucleation score of 1.09 ± 1.
MFRRFSWGR returned an amyloid nucleation score of -0.198 ± 0.44.
In turn, QGRTRSYY yielded an amyloid nucleation score of -0.301 ± 0.82.
Regarding LGSMSPVGLTKYLGDGEEVV, the amyloid nucleation score was -0.036 ± 0.55.
For the substance YCSHMLRMYFSEDRPLAQLM, the amyloid nucleation score was -0.399 ± 0.74.
SAAGT had an amyloid nucleation score of 0.49 ± 0.66.
In the case of TFLGLAGSHCLFSFVANSAR, the amyloid nucleation score stood at 1.24 ± 0.28.
YVFSLVSESLQIIYHPLLLL came in with an amyloid nucleation score of -0.189 ± 0.41.
Under YFSKICRSLFDM stands 0.906 ± 1.1; under IVVYVCIVGNNAPSLDAKSV, 0.923 ± 0.23; under GLYLNGPVINMWVVVASREV, 7.512 ± 0.044.
The value for WFWYIYM was 1.54 ± 0.19; that for ITYIGWQGSNLYWLFTTTLV was -1.12 ± 1.9.
In turn, VPRVYMFKFGIILFFYMHKA displayed an amyloid nucleation score of -0.273 ± 0.3.
As for VSTQIRRDGYDYAAVGHC, the amyloid nucleation score is 0.009 ± 0.8.
As for QVNVN, the amyloid nucleation score amounted to 0.19 ± 0.5.
Regarding VLIGSLLCN, the amyloid nucleation score was determined as 0.878 ± 0.41.
As for LGTLMSPPTRTDFMHPRYRV, the amyloid nucleation score came out at 1.51 ± 0.48.
Substance WGLLLE yielded an amyloid nucleation score of 4.13 ± 0.094.
With CPPSYLMT, the amyloid nucleation score was -0.464 ± 0.45.
VRFTTIVYPSWFFSAW: the amyloid nucleation score turned out to be 0.565 ± 0.45.
MLSVRTGISGLQSVRTKALA gave an amyloid nucleation score of -0.33 ± 0.51.
HHDMGSFFAVQSTSGTEGMG returned an amyloid nucleation score of -0.099 ± 0.37.
Take VSGAIRRDYIFDVIGRPTV: the amyloid nucleation score result was “inactive”.
Consider ENHAKLHDICGASGLSREGG, for which the amyloid nucleation score turned out to be 0.592 ± 0.49.
Regarding GANKTWCYKSSQCVISDGLG, the amyloid nucleation score was -0.103 ± 0.66.
Take VSVFDVWRMQCGNSLVKEGG: the amyloid nucleation score is -0.088 ± 0.42.
The substance YSTYQ yielded an amyloid nucleation score of 0.369 ± 0.29.
LKCFRLS: the amyloid nucleation score was 0.327 ± 0.55.
Consider NMIVKSATEAANSP, for which the amyloid nucleation score turned out to be 1.25 ± 0.56.
As for VVFRGAVREVQGSWESCILA, the amyloid nucleation score was found to be 0.676 ± 0.52.
The value for IFSFNMQDN was -0.363 ± 1.2; that for YFSVHF was 2.29 ± 0.15; that for VSTNKRVVGMRRFGTYTRYV was -0.309 ± 0.6.
Substance PQGLTSSSMGLTSANHSAA registered an amyloid nucleation score of 0.637 ± 0.88.
The value for LCFVPGS was 3.73 ± 0.073.
The substance CFQPWKNLKAY registered an amyloid nucleation score of -0.67 ± 0.68.
For the substance ERLGLRRFTIIISRQAQV, the amyloid nucleation score amounted to 0.03 ± 0.34.
LMIRILMVAQNSVLTVFW registered an amyloid nucleation score of -0.324 ± 0.4.
Under CSRNDTVHATINMWDNSATA stands -0.07 ± 0.41; under IWPYLGSASVL, 1.73 ± 0.35; under YLMFFVYCVRLRYLSWALSQ, -1.35 ± 1.9.
On to YHGIPFCMFFRVYAVR, for which the amyloid nucleation score was determined as 0.216 ± 1.4.
LSTMRLGHYCLAYCRLGCLY showed an amyloid nucleation score of 0.827 ± 0.41.
Consider YMHSGGQGLLCIQVSYTMSF, for which the amyloid nucleation score is -0.503 ± 0.83.
The value for FRMNRKVRC was 0.082 ± 0.29; that for FTNASDYYELVLHCRGAEKE was 0.523 ± 0.3; that for HTESRSSYGYVCPGYNLISF was 0.2 ± 0.63.
For ILWPGWDYTKKIVFSCLMVI, the amyloid nucleation score was -0.613 ± 0.29.
The value for YAYMVLVVPRDSVLEESECR was -0.087 ± 0.78.
With LSCWTCNRFYRGGLLVCMYP, the amyloid nucleation score is -0.713 ± 0.46.
The value for ITYYVNFDFCQGSLARVWLC was 5.01 ± 0.059.
In turn, AVSSYYVERRYLNLQGANRY had an amyloid nucleation score of 3.22 ± 0.15.
In turn, DVEIFTISWVKEVVYRDTWA came in with an amyloid nucleation score of 1.59 ± 0.7.
Take FLTLCVLNRLWH: the amyloid nucleation score is 4.85 ± 0.11.
STVREFSVVGPYVTGSVAGR yielded an amyloid nucleation score of 0.383 ± 0.71.
The value for NLLSALNMVVFHNLEFYVIF was 2.58 ± 0.25; that for VWTYNLI was “inactive”; that for VIRRLRSTYMSDMLLEGGLA was 0.864 ± 0.56.
The value for RFANMLNVFENV was -0.179 ± 0.26; that for YESCRVHVSIIYPPASGHRA was 2.9 ± 0.12.
The value for FISCCARIFTTCGIAD was 1.19 ± 0.14.
With CSSRVRMTRQLVKLVNICMR, the amyloid nucleation score was -0.122 ± 0.97.
The value for PLHCSVGRIRSGLMCLKLTC was -0.17 ± 1.1.
Substance YSVDQYSNTMRLTLHMLVFV gave an amyloid nucleation score of 0.455 ± 0.79.
The value for VNVKSVRYRKMSLGVYLVDW was 0.261 ± 0.68.
The value for VVLGLWV was “inactive”; that for SSWSGMFTCSYTMMLWLRRL was -0.692 ± 0.75.
On to FNITYCFRSFSTSVDNGF, for which the amyloid nucleation score amounted to 0.436 ± 0.55.
Substance GLALHGIEWVCCVQDQSFDR came in with an amyloid nucleation score of 7.08 ± 0.071.
PNFMMIWWVSTLRHNFTGLC came in with an amyloid nucleation score of 2.19 ± 0.31.
SLMFTPEYCVED came in with an amyloid nucleation score of 1.41 ± 0.69.
For RRDDVCELLVIP, the amyloid nucleation score was determined as 0.351 ± 0.51.
As to MLLALVIEADRRRWSVNGMY, the amyloid nucleation score came out at 2.93 ± 0.18.
For EVFRRSLGTTDAVGPKHDAQ, the amyloid nucleation score came out at 2.39 ± 0.17.
Regarding LFNYPS, the amyloid nucleation score is -0.948 ± 1.1.
In the case of SIQLGSFWSGCEICCDYPPA, the amyloid nucleation score is -0.805 ± 0.67.
With MCASASTSKMLVWVWTPYFG, the amyloid nucleation score is 2.14 ± 0.13.
Under RSDDKVSRSVGDHCTVGVLR stands 6.441 ± 0.061.
As to TTFSEVERLWGWSVFCNLST, the amyloid nucleation score is 0.723 ± 0.66.
As to VIVHIWRET, the amyloid nucleation score is 3.92 ± 0.11.
Substance APRCKSIWS had an amyloid nucleation score of -0.706 ± 0.59.
The value for IGGHRYGVDKY was -0.194 ± 0.72.
The substance MFIVYRMDLEFM had an amyloid nucleation score of 1.64 ± 0.51.
The substance HALEKLDKFRFTAS came in with an amyloid nucleation score of 0.484 ± 0.64.
The value for HREMMWQGKRV was “inactive”; that for RICKGIAGKSENCNTLYNSS was “inactive”.
The substance SIMNISVAYCGSM had an amyloid nucleation score of 3.67 ± 0.14.
LWWFEYRL came in with an amyloid nucleation score of -0.016 ± 0.32.
In turn, PGKICSNDQVNVSAY showed an amyloid nucleation score of -0.179 ± 0.49.
Take THAVREFWDLGGVNEENYGW: the amyloid nucleation score result was “inactive”.
With RCLSQNYCLSLASRLEHMCI, the amyloid nucleation score was 0.572 ± 1.1.
WFAAHPYFNWDGGIRY yielded an amyloid nucleation score of -1.41 ± 2.7.
Take KVKNRAFWPHMSLTYAMVPP: the amyloid nucleation score was determined as 0.333 ± 0.39.
The substance DFGRFTGSG yielded an amyloid nucleation score of -0.824 ± 2.1.
In the case of YRCCFLKNNPAWVQFSLRLR, the amyloid nucleation score was -0.436 ± 0.36.
Consider NNRCPCYSILWNRWRNKVA, for which the amyloid nucleation score entry is “inactive”.
KFFFKSSNDVIKGVHNRTIR gave an amyloid nucleation score of -0.404 ± 0.49.
In turn, YRLRQPLPSERSLMEHSCGV yielded an amyloid nucleation score of 0.761 ± 0.56.
In the case of STDLSYVSCAYVSTFLPNFR, the amyloid nucleation score worked out at 2.2 ± 0.21.
HVGQAVSSCDSNLE had an amyloid nucleation score of -0.365 ± 0.59.
GIAVHGMLDRMVSRRGLRAW had an amyloid nucleation score of 0.387 ± 0.97.
NICMQTRVIRAS: the amyloid nucleation score came to 0.811 ± 0.5.
Substance NRLRNGPNDRVVRATAPKGF returned an amyloid nucleation score of 0.259 ± 0.4.
The value for VCISWLRDTGADC was 2.12 ± 0.23; that for GGTYPPLDISDFNW was -0.616 ± 0.27.
On to TLWYLLQITYVLKFKW, for which the amyloid nucleation score amounted to 0.301 ± 0.4.
With NSLCEFSMKMFTYNSMGGFI, the amyloid nucleation score worked out at 1.86 ± 0.26.
The value for RVRVSLTWQLISLVVMSEYR was 0.809 ± 0.64.
Under EAIISNCNFVIQIMCYHYTA stands “inactive”; under SCHRPVPSRASSEKILGIAC, 0.157 ± 1.4.
